experiment: soluble on expression in E. coli; label from the status in PepcDB or PDB records

| Sequence | soluble on expression in E. coli |
| --- | --- |
| MNNPVVLDSKTELNEQTAQDVRLQLRQDADVQRIYNAVDIKDQLELIELGKEPSMEISRFADQILHTMSLSKIEDSGELLKQLGKIMDRFDSKDFAEEKSGFFSRMFKKADKMIEQIFSKYQTMGREIDKVYVEITKYQDEMKKSIGTLDGLYEQNLKYYLDLEKYVVAGEMLLERLNTELVPMYEERVRNNDQLAGIELESLKNSVEILEQRIDDLEKARMVALLTAPQIRMIQRGNNKLIGKINTAFITTIPIFKNGIIQAVNAKRQKLVADSMAELDRRTNELLKKNAQNIATQSVEVARLSGSSSIKMETLEETWNIISRGMQETQQIEEQNKREREESRKRMATLTENIKKELQG | not soluble |
| MKKQPGQQPLRSLSLTSAAKSLEEVEPEDDSKKGEPHAKAAGFGRGGGGGKRLPAARSTPMVIPNQVAAMPVQMTGFVQLATNNILSAIAHTNSLMVVQCIEPLEIFTGFETPNRYVVHDMYCRPLLYCMERSNVFARQYHGNNRKLSASTLDSCRRCSPMRTLTLFTFQWTCRQS | soluble |
| MTPFPAYVPPDFTRPDLAAAPPVRVAEAPGSGVLPAGFHATSNYPEYVHLGGGRWLLASGSRMDAVLVLDGDMLRVVEPRLVRRGDRVVVGRTENGEEGIYVHTTGFDAPAGAGGDKFTFRSRGTRESPFSRSYEELYDILRHDRDHGHIVWVLGPAVAFDRDSRAAMAGLIGGGYCHALLAGNALATHDLEAALFHTGLGQDIYTQALVAGGHYHHLDVINEVLRHGSLERAIAELGIRDGIIRACLEHRVPVVLAGSIRDDGPLPDVITDSRQAQDAMRAHARRATTVIALATQLHAIAVGNMTPSYRVLDDGTVRPVYFYIVDMSEFGADKLANRGSGQARAILTNVQDFMVNLWNNLKG | not soluble |
| MSPKVTKEHKDKRQAEILEAAKTVFKRKGFELTTMKDVVEESGFSRGGVYLYFSSTEEMFRRIIETGLDEGLRKLDKSAEHQSVWASISSYLDELTEGLRDVADTLAPVQFEYLVTAWRNEERRQYLEKRYDLFVERFSRLLQKGIDQGEFQPVQPLATIAKFFLNMNDGIIQNALYFDEEKADVSGLAESAKLYLKTVLQADEK | soluble |
| MGHHHHHHSHMYAFTLHPNAQHRRTRIGTSVDLSCLLCFRIGGFYALSPYPGLRLISLNMNFCSRENFWLLINSTDPAGQLQWLVGELQAAEDRGDKVRASSGNTVVLGDKQAPVELEHLWAQKFYFPGIPNKCSLGIQLMVTVESLHSVPLSLARAAWTPGCPDYHP | not soluble |
| MGSDKIHHHHHHMSGKNKSVADIMAVCQEMFEDLNFNYARKWKAAKEGRKVIGFLPVYSPIEMIHAAGCLPLGIFGGGDQMEVIHGDAYYQSYICRIPRSTIELGVTNRLDFVDGMIFPFVCDVIRNLSGIWKLMFPNVWSKFFDTPQNYDKSIGGTYYIQELQELKEGLETLTGRKISDADIQRSIGLYNENRRLIREVYAFRAKQPWLAPTSEVYVLMRAGLMMDVEEHNQMLKDYMAAAAKEDRPKRDNVRISIYGSFCEQPPLNLIKSIEMAGCYVVDDDYSLNNRFLMVDVPTTGNPLEALAITYLENSVETSCKYVPDGKVKGQFHVDAVKACGAEGVIYATPSFCDPALLDRPMVCNKLSEAGIPYIAFKYAENSGQMQPIREQAGTFADSIKLWS | not soluble |
| SGRPIEDVRDRQRLADATATVHETRLALHHGRGNIESDFRLSNGRSSTCSYLSYSFLSYWPGKHDINLMAGCALAVSAGNCDQNAAINTRRHAARMEGGGQITNVCDQACAHMYALYQPPGSAEAQDSAVVLDSWSDGPAVLLRDSRWAGTYHRTSTYPIERFDKPGAIDALARTRALQAEIEDPQTEFHAHLRGVESVVRTPPVPRKIYASTP | not soluble |
| MGSDKIHHHHHHMKKLRIAQVSPLIESVPPKKYGGTERVVYYLTEGLVERGHEVTLFASGDSATSARLIAPVKESLRLGRKIHSTTIMHMLMLSKVYEEMAGEFDIIHSHLEYLTLPYASCSRTPTVLTMHGRLDLPDYADILKRYSSMAWVSISDSQRAPVPDINWVGTIYHGYPENLFEFNPDPEDYFLYLGRFSEEKRPDEAIRLARACKIHLKLAAKIDTADKAYFKAKVEPLLDSPYIEYVGEVGDSRKGELLRNAKALLNTIDWPEPFGLVMIEALACGTPVIVRRCGSSPEVITHGVTGFICDSQLDFIRAIHNIGTISRIACRREFEQRFTLRHMVDNYETLYRKVIAASSATDSLSSLP | not soluble |
| MASIAVCPGSFDPVTYGHLDIIKRGAHIFEQVYVCVLNNSSKKPLFSVEERCELLREVTKDIPNITVETSQGLLIDYARRKNAKAILRGLRAVSDFEYEMQGTSVNRVLDESIETFFMMANNQYSFLSSSIVKEVARYDGSVSEFVPPEVELALQQKFRQGGSHHHHHH | soluble |
| LLGDEAIALGAIHAGISGVYAYPGTPSTEITEFIQNNRLAKERKLHSTWCTNEKTAMEAALGMSYAGKRALVCMKHVGMNVAADAFVNSAITGVNGGLVVLAADDPSMHSSQNEQDSRFYGKFAMIPMLEPSSQQEAYDMMDYAYTLSEKLKLPVLMRVVTRLAHSRAGVEVADIREENQLNPDHERAHWVLLPGNARKQYLDLVKKQEKLEEASSKSPYNYLEGLNPEYDYEFGVIACGIGYNYVKEADTDSCHIPVLKVSQYPLPAEEIRTMADRCGYVLVVEDGQPFVEEQVKAILSSDYEVKGRLTETLPRTGELTPDNVGEAIGWGIKRPFGKSQVVMPRPPALCQGCGHRDVYDALNKVAAEYPDARIFGDIGCYTLGALPPFRAIDSCVDMGASITMAKGASDAGVFPAIAVIGDSTFTHSGMTGLLDAVNDRANITVVISDNLTTAMTGGQDSAGTNKFEAICLGLGVEPEHVRVVVPLPKNMEEITRTIREEIEY | not soluble |
| MVEVKPIIIDGHPFIAVSVQLPKTNLLAVAGEKGYIMCGALDVALLNEKLRDRGIIAGRAVGVRTIEQLLEAPLESVTVAALELGIEEGMKGREALLKMR | not soluble |
| MTTALKIDFISDVSCPWCVIGLRALDQALEALGDEVQAQIHFQPFELNPNMPAEGQDIKEHIAEKYGSTPEQIEAIHETIRERGAELGFTFGKGERRIYNTFDAHRLLHWAEQEGKQPALKQALFVAYFSELKDPSSHQTLADVAQKVGLDRLRAQAILDSDEFASEVREAEQLWTSRGITSVPTMVFNDQYAVSGGQPVEVFVSAIRQMLSESK | not soluble |
| MGCYHPLSGTDGTLMRHTLPIAPQFYVTAPQPCPYLAGRMERKLFTALQGEGAERLNNALSQQGFRRSQNVLYRPSCADCAACLSARIDVSAFRASRSQKRAMRRNAHLTRRATSPWATDEQYELFRRYLDSRHADGGMADMDVFEFAAMIEETPIRSRVIEYAHRDTRALIGVSLTDVLDDGLSMVYSFYDPDLHRDSLGTHMILDHIAIAREAGLPYVYLGYWVPGSPKMGYKSRFSGLEIYLGGRWQAMTDPEAHDAIRHPLSTDPIAEQVANIQLPDRWPTGDLEHHHHHH | not soluble |
| SDLMTPWPIIEKRIVAAASADFVTAIYNPKSEGRYWQLYRFVEIFMQYRSADTPVGLVRQAGREEEQVTVTTLGEFDPEVVDMFTVVLVGNSQSYCYEGHFITPRGYYPEEEIEAKGI | not soluble |
| MLKYQQIATEIETYIEEHQLQQGDKLPVLETLMAQFEVSKSTITKSLELLEQKGAIFQVRGSGIFVRKHKRKGYISLLSNQGFKKDLEDFNVTSKVIELDVRKPTPEAAENLNIGMDEDIYYVKRVRYINGQTLCYEESYYTKSIVTYLNNEIVSHSIFHYIREGLGLKIGFSDLFLHVGQLNEEEAEYLGLEAGLPKLYIESIFHLTNGQPFDYSKISYNYEQSQFVVQANSFLL | soluble |
| MNIQKAHDVAPPEWLAQVREPALCPGQIIVDPHHHLWDRQGQLYLLPQFLEDQAGDHRIVSTVYVQGRAMYRAGAHALAPVGETEFARGVAAMCASGRYGETRVCDGIVAHADLTQGDGVERVLQAHVEAGGRHFKGIRHMATWDADPALMNPDVAPPPHLLGETRFRRGFAVLDRMGLVFDAWVFHPQLADVVALASAFPDTTIVLNHLGGILNTGSYAGRREAIRADWLASLRELATCPNVYLKLGGLGMRISGFDYPSRPRPPNSTELAADFAPYMLPAIDLFGPERCMFESNFPVDKRSYTYGVLWNAFKRLAADMSQAERDHLFYQTAAKAYRLNLDHIAADMAGDPLEHHHHHH | not soluble |

From the DeepSol protein solubility set
